What was measured:
[1] = biological target: T1, ヒト組織因子(TF)(ヒト膀胱癌細胞J82上に発現) (human, UniProt P13726 33-295); assay: cell ELISA on fixed J82 cells
T1 construct: whole, on cells; Target of the cell ELISA; also called ヒトTF; 抗原

[2] = biological target: T2, 可溶型ヒトTF(アミノ酸配列1-219のC末端にFLAGペプチドを連結、CHO細胞発現) (human, UniProt P13726 33-251); assay: dot blot of shTF on nitrocellulose: native, 8 M urea-denatured, and 8 M urea + 5 mM DTT
T2 construct: also called shTF; 可溶型TF

[3] = biological target: T1, ヒト組織因子(TF)(ヒト膀胱癌細胞J82上に発現); assay: cell ELISA on fixed J82 cells; chimeric antibody as the reference

binding result [1]	binding result [2]	binding result [3]	Binder
binds	binds	–	H鎖ヒト型化バージョンb/L鎖ヒト型化バージョンb抗体 (antibody, V domains shown, Human IgG4 kappa (vector N5KG4P); also called b-b; bb) VH: QVQLLESGAVLARPGTSVKISCKASGFNIKDYYMHWVKQRPGQGLEWIGGNDPANGHSMYDPKFQGRVTITADTSTNTAYMELSSLRSEDTAIYYCARDSGYAMDYWGQGTLVTVSS VL: DIQMTQSPSSLSASVGDRVTITCKASQDIKSFLSWYQQKPGKAPKLLIYYATSLADGVPSRFSGSGSGTDYTLTISSLQPEDFATYYCLQHGESPYTFGGGTKVEIK
binds	binds	–	H鎖ヒト型化バージョンi/L鎖ヒト型化バージョンb抗体 (antibody, V domains shown, Human IgG4 kappa (vector N5KG4P); also called i-b; ib) VH: QVQLLESGAVLARPGTSVKISCKASGFNIKDYYMHWVKQRPGQGLEWIGGNDPANGHSMYDPKFQGRVTITADTSTSTVFMELSSLRSEDTAVYYCARDSGYAMDYWGQGTLVTVSS VL: DIQMTQSPSSLSASVGDRVTITCKASQDIKSFLSWYQQKPGKAPKLLIYYATSLADGVPSRFSGSGSGTDYTLTISSLQPEDFATYYCLQHGESPYTFGGGTKVEIK
binds	binds	–	H鎖ヒト型化バージョンi/L鎖ヒト型化バージョンb2抗体 (antibody, V domains shown, Human IgG4 kappa (vector N5KG4P); also called i-b2; ib2) VH: QVQLLESGAVLARPGTSVKISCKASGFNIKDYYMHWVKQRPGQGLEWIGGNDPANGHSMYDPKFQGRVTITADTSTSTVFMELSSLRSEDTAVYYCARDSGYAMDYWGQGTLVTVSSAS VL: DIQMTQSPSSLSASVGDRVTITCKASQDIKSFLSWYQQKPEKAPKSLIYYATSLADGVPSRFSGSGSGTDYTLTISSLQPEDFATYYCLQHGESPYTFGGGTKVEIK
–	binds	binds	H鎖キメラ/L鎖キメラ抗体(キメラATR-5抗体) (antibody, V domains shown, Mouse ATR-5 V regions joined to human C regions; Both an IgG1 (N5KG1(V)) and an IgG4 (N5KG4P) kappa vector were built; also called ch-ch; chATR-5) VH: EVQLQQSGTNLVRPGALVKLSCKGSGFNIKDYYMHWVKQRPEQGLEWIGGNDPANGHSMYDPKFQGKASITADTSSNTAYLQLSSLTSEDTAVYFCARDSGYAMDYWGQGTSVTVSS VL: DIKMTQSPSSMYASLGERVTITCKASQDIKSFLSWYQQKPWKSPKTLIYYATSLADGVPSRFSGSGSGQDYSLTINNLESDDTATYYCLQHGESPYTFGGGTKLEIK

Source: patent publication JP2005330292A (dated 2005)
